B1: HDV Ribozyme (parent)
chain: GGCCGGCAUGGUCCCAGCCUCCUCGCUGGCGCCGGCUGGGCAACAUUCCGAGGGGACCGUCCCCUCGGUAAUGGCGAAUGGGACCCA

Variants of: B1
Assay: self-cleavage, relative activity (ratio to wild type); higher = more cleavage; co-transcriptional

Row | Variant | self-cleavage
1 | U20C G82U | 0.0449
2 | U20C G82A | 0.0462
3 | U20A G67U | 0.115
4 | U20A G67C | 0
5 | U20A G67A | 0.0462
6 | U20A G81A | 0
7 | U20A G81U | 0.0346
8 | U20C C66G | 0.131
9 | U20A C62G | 0.0639
10 | U20C G73A | 0
11 | U20C G73C | 0.135
12 | U20A U46C | 0
13 | C19U C32U | 0.295
14 | C19U C32A | 0.0361
15 | U20A A78U | 0
16 | U20A A78G | 0
17 | U20A A78C | 0.107
18 | C19U G82U | 0.0702
19 | C19U U79C | 0.0415
20 | U20C C26U | 0.192
21 | U20C C26A | 0.104
22 | U20A U60C | 0
23 | U20A U60G | 0.128
24 | C19U G52C | 0.326

Row | Variant | self-cleavage
25 | U20C G29C | 0.231
26 | U20G A78C | 0.249
27 | U20C U69C | 0.208
28 | U20C U69A | 0
29 | U20C C44G | 0.0692
30 | U20C C44U | 0
31 | C19U U47C | 0.111
32 | C19U U47A | 0.191
33 | U20A U27G | 0
34 | U20C G59C | 0.0898
35 | U20C G59U | 0.128
36 | C19U G50A | 0.245
37 | C19U G50C | 0.332
38 | U20C G38A | 0
39 | U20C G52C | 0.244
40 | U20C G52A | 0.175
41 | U20C U46C | 0
42 | U20C U46A | 0.317
43 | U20C C63U | 0.0898
44 | U20C C63G | 0.104
45 | U20C C85U | 0.0475
46 | U20C C85A | 0.119
47 | C19U C84G | 0.0332
48 | U20A G28C | 0.0573

Row | Variant | self-cleavage
49 | U20A G28A | 0.145
50 | U20A G28U | 0.0386
51 | U20C U65G | 0.145
52 | U20C U65C | 0.401
53 | C19U G40A | 0.0944
54 | C19U G40C | 0.0923
55 | U20C C86G | 0.208
56 | U20G A43C | 0.256
57 | U20G A43U | 0.107
58 | C19U U72C | 0.0354
59 | U20A C48A | 0.0573
60 | U20A A70G | 0.147
61 | U20A A70C | 0.104
62 | U20A A70U | 0.0615
63 | U20C G54A | 0.145
64 | U20C C24U | 0.0475
65 | U20A C85A | 0.26
66 | U20C A42G | 0
67 | U20G A87G | 0.282
68 | U20G A87C | 0.282
69 | U20C A51C | 0.287
70 | U20A A77C | 0.151
71 | U20A A77G | 0.0723
72 | U20A A42U | 0

Row | Variant | self-cleavage
73 | U20A A42C | 0.0594
74 | U20A G31U | 0.0978
75 | U20A C58A | 0.0615
76 | U20A C58G | 0.158
77 | C19U C63G | 0.0707
78 | C19U C63U | 0.134
79 | U20A C66G | 0.107
80 | U20A C66A | 0
81 | U20C A87C | 0.254
82 | U20C A87U | 0.189
83 | U20A C44A | 0.0573
84 | U20A C44U | 0
85 | U20A C44G | 0.111
86 | U20C A77G | 0.208
87 | U20C A77C | 0.0615
88 | U20A C32A | 0.0489
89 | U20G C32A | 0
90 | U20G C32U | 0.0519
91 | U20A A45C | 0.0639
92 | C19U C30A | 0.0449
93 | C19U C30G | 0.0936
94 | U20C | 0.129
95 | U20A | 0.0723
96 | U20G | 0.205

Row | Variant | self-cleavage
97 | U20A G34U | 0
98 | U20G C62G | 0.0755
99 | U20A A71C | 0.0554
100 | U20A A71U | 0.0504
101 | U20A C49U | 0.0665
102 | U20C C57U | 0.306
103 | U20C C57A | 0.0449
104 | C19U C75U | 0.0329
105 | C19U C75A | 0.0665
106 | U20C C49U | 0.192
107 | U20C C49G | 0.0852
108 | C19U U27G | 0.237
109 | U20C U47C | 0.262
110 | U20A G39U | 0.0852
111 | C19U G54C | 0.2
112 | U20A C24G | 0.0449
113 | U20G C44A | 0.262
114 | U20C G67C | 0.405
115 | U20A A83C | 0
116 | U20A A83U | 0.0978
117 | U20A G53A | 0.122
118 | U20A G53C | 0.0773
119 | U20C G40C | 0.0396
120 | U20C G40A | 0.0941

Row | Variant | self-cleavage
121 | U20A C33G | 0.151
122 | U20C C22U | 0.125
123 | U20C C32U | 0.0426
124 | U20C C32A | 0.185
125 | U20C U72G | 0.0723
126 | U20C C58U | 0
127 | U20A G74A | 0
128 | U20A G74U | 0.0437
129 | U20G C26G | 0.196
130 | U20G C26A | 0.32
131 | U20A C21U | 0.0898
132 | C19U U20G | 0.0594
133 | C19U C44G | 0.0519
134 | U20A C57U | 0.0707
135 | U20A C57G | 0
136 | U20A U23G | 0
137 | U20A C61G | 0.0536
138 | U20A C61U | 0.208
139 | C19U U23A | 0.129
140 | C19U G29C | 0.122
141 | U20C C33A | 0.0665
142 | U20C C33U | 0.0536
143 | U20C A83C | 0.133
144 | U20C A83U | 0

Row | Variant | self-cleavage
145 | C19U C41U | 0.173
146 | U20C G76C | 0.0773
147 | U20C G34A | 0.0504
148 | U20C A70C | 0.246
149 | C19U G68U | 0.168
150 | C19U G68A | 0.148
151 | C19U G68C | 0.148
152 | U20C G74A | 0.125
153 | U20C A45G | 0
154 | U20C A45C | 0
155 | C19U U60G | 0.182
156 | C19U U60C | 0.0906
157 | C19U U60A | 0.192
158 | U20C G55U | 0.199
159 | C19U G28C | 0.0875
160 | C19U G28U | 0.172
161 | U20A C84G | 0.196
162 | U20A C84U | 0.0449
163 | U20C U23C | 0.0723
164 | U20C U23G | 0
165 | U20G C58A | 0.266
166 | U20A C30U | 0.0415
167 | U20A C30A | 0.0739
